The record followed here is US20250333517A1 (ROCK BIOMEDICAL, published 2025).

What is called EC50 is the concentration needed to bring the measured effect to its halfway point. A high value points to a need for much substance.

The target in assay [1] is T1, Vascular Endothelial Growth Factor (VEGF-A) (UniProt P15692-4 27-191, limits assumed).
T1 construct: also called the antigen (of Bevacizumab)
Description: ELISA, target binding (FIG. 60).

For a further assay, the target named is T2, CD20 (UniProt P11836 1-297, limits assumed).
T2 construct: also called the antigen (of Rituximab and Obinutuzumab)
T2 sequence (looked up): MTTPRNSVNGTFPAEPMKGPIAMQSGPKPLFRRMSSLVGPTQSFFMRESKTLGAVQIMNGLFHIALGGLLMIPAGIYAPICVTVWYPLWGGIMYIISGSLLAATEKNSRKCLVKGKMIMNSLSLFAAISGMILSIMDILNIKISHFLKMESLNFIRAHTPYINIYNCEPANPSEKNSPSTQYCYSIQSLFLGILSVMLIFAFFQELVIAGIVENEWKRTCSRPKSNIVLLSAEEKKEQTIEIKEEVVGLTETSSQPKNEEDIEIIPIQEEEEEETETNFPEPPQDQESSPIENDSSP
Description: ELISA, target binding (FIG. 57). In general terms: ELISA stands for enzyme-linked immunosorbent assay.

For assay [2], the target named is FcγRIIIA on the effector cells of the ADCC reporter assay (UniProt P08637 17-254, limits assumed). Description: cell-based or functional assay.
FcγRIIIA on the effector cells of the ADCC reporter assay, sequence (P08637 17-254 limits assumed): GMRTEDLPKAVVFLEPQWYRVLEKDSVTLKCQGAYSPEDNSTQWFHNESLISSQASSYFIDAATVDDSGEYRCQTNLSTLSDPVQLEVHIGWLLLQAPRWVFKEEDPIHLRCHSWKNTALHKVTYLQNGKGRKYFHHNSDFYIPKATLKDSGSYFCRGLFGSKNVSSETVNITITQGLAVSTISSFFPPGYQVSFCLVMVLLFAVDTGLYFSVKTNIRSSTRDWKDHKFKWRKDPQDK

T1 sequence (P15692 other isoform, or with tags, fused parts or gaps limits assumed): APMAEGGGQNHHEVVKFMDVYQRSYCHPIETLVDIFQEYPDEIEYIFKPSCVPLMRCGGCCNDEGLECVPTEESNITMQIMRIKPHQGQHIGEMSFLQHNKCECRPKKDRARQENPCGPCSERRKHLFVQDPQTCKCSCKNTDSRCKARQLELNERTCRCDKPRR

B1: Bevacizumab population of the present disclosure (Biobetter), produced by SAII A3 cells (antibody, V domains shown)
VH: EVQLVESGGGLVQPGGSLRLSCAASGYTFTNYGMNWVRQAPGKGLEWVGWINTYTGEPTYAADFKRRFTFSLDTSKSTAYLQMNSLRAEDTAVYYCAKYPHYYGSSHWYFDVWGQGTLVTVSS
VL: DIQMTQSPSSLSASVGDRVTITCSASQDISNYLNWYQQKPGKAPKVLIYFTSSLHSGVPSRFSGSGSGTDFTLTISSLQPEDFATYYCQQYSTVPWTFGQGTKVEIKR
modifications: N-glycan on the heavy chain: around 82.6% SCT glycans, mostly with core fucose
notes: also called glycoengineered Avastin protein population
For the molecule B1, the response in assay [1] was half-maximal at 0.377 nM (EC50).

B2: Rituximab population of the present disclosure (Biobetter), produced by SAII A3 Fut8 KO cells (antibody, human IgG1, kappa)
heavy: not shown
light: QIVLSQSPAILSASPGEKVTMTCRASSSVSYIHWFQQKPGSSPKPWIYATSNLASGVPVRFSGSGSGTSYSLTISRVEAEDAATYYCQQWTSNPPTFGGGTKLEIKRTVAAPSVFIFPPSDEQLKSGTASVVCLLNNFYPREAKVQWKVDNALQSGNSQESVTEQDSKDSTYSLSSTLTLSKADYEKHKVYACEVTHQGLSSPVTKSFNRGEC
modifications: N-glycan on the heavy chain: around 83.4% SCT glycans, no core fucose
notes: also called glycoengineered MabThera protein population
B2 registered an EC50 with CD20 of 0.77 nM. In addition, the “ADCC EC50 (M), ADCC Reporter Bioassay” value in assay [2] amounted to 1.76e-10 M.
